In the Human Domainome abundance scans (Beltran et al. 2025) one finds abundance fitness data, which are given here for 35 variants.

The labels stand for the following.
B1: Protein S100-G, residues 1 to 79; numbered along this chain, P02633 (parent)
chain: MSAKKSPEELKGIFEKYAAKEGDPNQLSKEELKLLLQTEFPSLLKGPSTLDELFEELDKNGDGEVSFEEFQVLVKKISQ

± gives the uncertainty stated by the source.

The data set covers variants of B1. Nature of the data set: abundance fitness (aPCA) (normalised: wild type 0, dead -1); higher = more abundant; growth selection in yeast, the domain comes from the species named. To be noted: Bos taurus.
Regarding MSAKKSPEELKGIFEKYAAKEGDPNQLSKEELKLLLQTEFPSLLKGPSTLDELFEELDKNGDGEVSFEEFQALVKKISQ [V72A], the abundance fitness is -0.034 ± 0.081.

As for QSAKKSPEELKGIFEKYAAKEGDPNQLSKEELKLLLQTEFPSLLKGPSTLDELFEELDKNGDGEVSFEEFQVLVKKISQ [M1Q], the abundance fitness is -0.678 ± 0.15.

MSAKKSEEELKGIFEKYAAKEGDPNQLSKEELKLLLQTEFPSLLKGPSTLDELFEELDKNGDGEVSFEEFQVLVKKISQ [P7E]: the abundance fitness amounted to 0.037 ± 0.1.

Regarding MSAKKSDEELKGIFEKYAAKEGDPNQLSKEELKLLLQTEFPSLLKGPSTLDELFEELDKNGDGEVSFEEFQVLVKKISQ [P7D], the abundance fitness is -0.119 ± 0.092.

With MSAKKSPEELKGIFEKYAAKEWDPNQLSKEELKLLLQTEFPSLLKGPSTLDELFEELDKNGDGEVSFEEFQVLVKKISQ [G22W], the abundance fitness is -0.547 ± 0.087.

On to MSAKKSPEELKGIFEKYAAKEHDPNQLSKEELKLLLQTEFPSLLKGPSTLDELFEELDKNGDGEVSFEEFQVLVKKISQ [G22H], for which the abundance fitness was -0.103 ± 0.079.

For MSAKKSPEELKGIFEKYAAKEGDPNQLSKEELKLLLQTEFPSLLKGPSTLDELFEELDKNGDGEVSFEEFQVRVKKISQ [L73R], the abundance fitness is -0.473 ± 0.071.

Turning to MSAKKSPEELKGIFEKYAAKEGDPNQLSKEELKLLLQTEFPSLLKGPSTLDELFEELDKNGDGEVSFEEFQVAVKKISQ [L73A], the abundance fitness was -0.112 ± 0.072.

With MSAKKSPEELKGIFEKYAAKEGDPNQLSKEELKLLLQTEFPSLLKGPSTLDELFEELDKNGDGEVSFEEFQVSVKKISQ [L73S], the abundance fitness was -0.187 ± 0.072.

As to MSAKKSPEELKGIFEKYAAKEGDPNQLSKEELKLLLQTEFPSLLKGPSTLDELFEELDKNGAGEVSFEEFQVLVKKISQ [D62A], the abundance fitness is -0.009 ± 0.069.

As for MSAKKSPEELKGIFEKYAAKEGDPNQLSKEELKLLLQTEFPSLLKGPSTLDELFEELDKNGYGEVSFEEFQVLVKKISQ [D62Y], the abundance fitness was -0.193 ± 0.078.

Consider MSAKKSPEELKGIFEKYAAFEGDPNQLSKEELKLLLQTEFPSLLKGPSTLDELFEELDKNGDGEVSFEEFQVLVKKISQ [K20F], for which the abundance fitness was -0.159 ± 0.083.

For MSAKKSPEELKGIFEKYAAKEGDPNQLSKEELKLLLQTEFPRLLKGPSTLDELFEELDKNGDGEVSFEEFQVLVKKISQ [S42R], the abundance fitness is -0.056 ± 0.069.

As to MSAKKSPEELKGIFEKYAAKEGDPNQLSKEELKLLLQTEFPSLLKGPSTLDELLEELDKNGDGEVSFEEFQVLVKKISQ [F54L], the abundance fitness is 0.04 ± 0.06.

On to MSAKKSPEELKGIFEKYAAKEGDPNQLSKEELKSLLQTEFPSLLKGPSTLDELFEELDKNGDGEVSFEEFQVLVKKISQ [L34S], for which the abundance fitness is -0.04 ± 0.064.

Take MSAKKSPEELKGIFEKYAAKEGDPNQLSKEELKLLLQTEFPSLLKGPSTLDELFEELDKNGDGEVSFEDFQVLVKKISQ [E69D]: the abundance fitness came to 0.009 ± 0.11.

MSAKKSPEELKGIFEKYAAKEGDPNQLSKEELKLLLQTEFPSLLKGPSTLDELFEELDKNGDGEVSFEGFQVLVKKISQ [E69G]: the abundance fitness was found to be 0.06 ± 0.086.

Consider MSAKKSPEELKGIFEKYAAKEGDPNQLSKEELKLLLQTEFPSLLKGPSTLDELFEELDKNGDGEFSFEEFQVLVKKISQ [V65F], for which the abundance fitness is -0.002 ± 0.083.

For the variant MSAKKSPEELKGIFEKYAAKEGDPNQLSKEELKLLLQTEFPSLWKGPSTLDELFEELDKNGDGEVSFEEFQVLVKKISQ [L44W], the abundance fitness came out at 0.115 ± 0.092.

For MSAKKSPEELKGIFEKYAGKEGDPNQLSKEELKLLLQTEFPSLLKGPSTLDELFEELDKNGDGEVSFEEFQVLVKKISQ [A19G], the abundance fitness came out at 0.058 ± 0.078.

Take MSAKKSPEELKGIFEKYAAKEGDPNQLSKEELKLLLQTHFPSLLKGPSTLDELFEELDKNGDGEVSFEEFQVLVKKISQ [E39H]: the abundance fitness was -0.059 ± 0.074.

For the variant MSAKKSPEELKGIFENYAAKEGDPNQLSKEELKLLLQTEFPSLLKGPSTLDELFEELDKNGDGEVSFEEFQVLVKKISQ [K16N], the abundance fitness was -0.07 ± 0.093.

Regarding MSAKKSPEELKGIFEKYAAKEGDPNQLSKEELKLLLQTEFPSLLKGPSTLDELFEELDENGDGEVSFEEFQVLVKKISQ [K59E], the abundance fitness was -0.005 ± 0.085.

MSAKKSPEELKGIFEKYAAKEGKPNQLSKEELKLLLQTEFPSLLKGPSTLDELFEELDKNGDGEVSFEEFQVLVKKISQ [D23K]: the abundance fitness is -0.157 ± 0.082.

In the case of MSAKKSPEELKGIFEKYAAKEGDPNQLSKEELKLLLQTEFPSLLKGPSTLDELFEELDKNGDGEVSFEEFQVLVKKISY [Q79Y], the abundance fitness was -0.148 ± 0.11.

As for MSAKKSPEELKGIFEKYAAKEGDPNQLSKEELKLLLQTEFPSLLKGPSTLDELFEELYKNGDGEVSFEEFQVLVKKISQ [D58Y], the abundance fitness is -0.008 ± 0.088.

On to MSAKKSPEELKGIFEKYAAKEGDPNQLSKEELKLLLQTEFPSLLKGPSTLDTLFEELDKNGDGEVSFEEFQVLVKKISQ [E52T], for which the abundance fitness amounted to 0.064 ± 0.069.

For the variant MSAKKSPEELKGIFEKYAAKEGDPNQLSKEELKLLLQTEFPSLLKGPSTLDELFEELDKNGDGDVSFEEFQVLVKKISQ [E64D], the abundance fitness came to 0.049 ± 0.083.

With MSAKKSPEELKGIFEKYAAKEGDPNQLSKAELKLLLQTEFPSLLKGPSTLDELFEELDKNGDGEVSFEEFQVLVKKISQ [E30A], the abundance fitness was -0.016 ± 0.074.

On to MSAKKSPEECKGIFEKYAAKEGDPNQLSKEELKLLLQTEFPSLLKGPSTLDELFEELDKNGDGEVSFEEFQVLVKKISQ [L10C], for which the abundance fitness was -0.536 ± 0.1.

Take MSAKKSPEELKGIFEKYAAKEGDPNQLSKEELKLLLYTEFPSLLKGPSTLDELFEELDKNGDGEVSFEEFQVLVKKISQ [Q37Y]: the abundance fitness is -0.118 ± 0.075.

As for MSAKKSPEELYGIFEKYAAKEGDPNQLSKEELKLLLQTEFPSLLKGPSTLDELFEELDKNGDGEVSFEEFQVLVKKISQ [K11Y], the abundance fitness is -0.124 ± 0.079.

Turning to MSAKKSPEELKGIFEKYAAKEGDPNQLSKEELKLLLQTEFPSLLKGPSTLDELFEELDKNGDGEVSFEEFQVLVTKISQ [K75T], the abundance fitness is -0.073 ± 0.067.

For the variant MSAKKSPEELKGIFEKYAAKEGDPNQLSKEELKLLLQTEFPSLLKGPSTLDELFEELDKNGDGEVSIEEFQVLVKKISQ [F67I], the abundance fitness is -0.161 ± 0.084.

Take MSAKKSPEELKGIFEKYAAKEGDPNQLSKEELKLLLQTEVPSLLKGPSTLDELFEELDKNGDGEVSFEEFQVLVKKISQ [F40V]: the abundance fitness was -0.065 ± 0.072.
